Experimental data taken from patent US11629193B2, “EGFR binding molecules” (F-STAR BETA LIMITED, priority 2016, dated 2023).
Entries after “also recorded” stand apart in the source; their conditions may differ. Values belong to the molecule of their own block, whether it stands above or below them.

Key:
[1] = target: T1, HER3 (Homo sapiens, UniProt P21860); assay: ELISA for specific binding within the HER receptor family; conditions: 1 μM, antigen coated at 1 μg/ml
T1 construct: purchased Sino Biological 10201-H08H
Description: Antigens including EGFR (produced in house), HER2 His Tag (Sino Biological, 10004-H08H), HER3 His Tag (Sino Biological, 10201-H08H) and HER4 His Tag (Sino Biological, 10363-H08H) were biotinylated using the Lightning-Link™ Biotin kit (Innova Biosciences, 704-0030) following the supplier's protocol. The biotinylated antigens were coated in different wells on MaxiSorp™ plate (Nunc) at 1 μg/ml in PBS overnight at 4° C. and excess unbound antigens were washed off with PBS. The antigen-coated plate was blocked with 1% TWEEN® in PBS (PBST) for 1 hour at room temperature. After removing PBST, the anti-EGFR Fcabs (1 μM) and relevant positive and IgG negative antibody controls (1 μM) in 0.1% PBST were incubated for 1 hour to bind the coated antigens followed by washing. The bound Fcabs or antibodies were detected by Protein A-HRP (ThermoFisher 101023) or anti-mouse IgG-horseradish peroxidase (HRP) (Sigma A9044) for the HER4 positive control. Tetramethylbenzidine (TMB) (eBioscience 00-4201-56) was used as the substrate to interact with HRP enzyme for colorimetric detection. 1 M Sulphuric acid was added to stop the enzyme-substrate reaction. The plate was read at an absorbance of 450 nm subtracted by 630 nm as background.

[2] = test system: phosphorylation of c-Met and EGFR; assay: Western blot of receptor phosphorylation in U87MG cells; type: cell-based, human; conditions: 200 nM, 20 min
Description: (§1) Overnight cultures of the glioblastoma cell line U87MG (ATCC HTB-14) were moved from a medium with 10% FBS to a low serum medium with 0.1% FBS to optimise sensitivity to ligand stimulation. The cells were incubated overnight. […] Controls without antibody treatment were included, with and without growth factor stimulation. The treated cells were lysed using lysis buffer (10 mM Tris® pH7.5, 150 mM NaCl, 1 mM EDTA) comprising 1:100 protease inhibitor cocktail (Calbiochem, 539131) and 1:100 Phosphatase inhibitor cocktail (Calbiochem, 524625) and the lysates collected for analysis.
(§2) Lysate samples were subjected to standard western blotting analysis using a 4-12% Bis-Tris® protein gel (ThermoFisher, NP0322BOX) and transferred to a nitrocellulose membrane (ThermoFisher, IB301001). The membrane was blocked with 5% Marvel milk/TBST and then probed for phospho-c-Met using a rabbit monoclonal antibody specific for c-Met phosphorylated at Tyr1234/1235 (Cell Signaling, 3077), phospho-EGFR using a mouse monoclonal antibody specific for EGFR phosphorylated at Tyr1068 (Cell Signaling, 2236), phospho-MAPK using a mouse monoclonal antibody specific for p44/42 MAPK (ERK1/2) phosphorylated at Thr202/Tyr204 (Cell Signaling, 9106), and phospho-Akt using a rabbit monoclonal antibody specific for Akt phosphorylated at Ser473 (Cell Signaling, 9271). […]

[3] = test system: phosphorylation of MAPK and Akt; assay: Western blot of downstream signalling in U87MG cells; type: cell-based, human; conditions: 200 nM (200+200 nM for combination), HGF and EGF present
Description: as §1, §2

[4] = test system: NCI-H596 cells; assay: Cell proliferation, NCI-H596 cells stimulated with EGF and HGF; type: cell-based; conditions: NCI-H596, 10-1000 nM, 2 ng/ml EGF and 12 ng/ml HGF, 3 days
Description: NCI-H596 (ATCC HTB-178) is a lung adenosquamous cancer cell line that engages both the EGF and HGF signalling pathways and was used to investigate the ability of mAb^2 molecules to block proliferation. The same method was used as in the U87MG assay described above, except that the NCI-H596 cells were stimulated with both EGF and HGF ligands. One day before the treatment, the level of FBS used in the media was reduced from 10% to 1%. The next day treatments were added at various concentrations (10-1000 nM) in the presence of 2 ng/ml EGF (R&D systems, 236-EG) and 12 ng/ml HGF (PeproTech, 100-39) and incubated for 3 days at 37° C. Controls of HGF+EGF, EGF only, HGF only and no ligand stimulation were also included.

[5] = test system: NCI-H1975 cells; assay: Cell proliferation, NCI-H1975 cells stimulated with HGF; type: cell-based
Description: NCI-H1975 (ATCC CRL-5908) is a non-small cell lung cancer (NSCLC) cell line which expresses constitutively active mutated EGFR L858R and EGFR T790M (Kobayashi et al 2005). These mutations are acquired secondary mutations known to confer resistance to EGFR tyrosine kinase inhibitor (TKI) therapies in NSCLC patients. The NCI-H1975 cell line also expresses c-Met. […] The same method was used as in the U87MG assay described above, except that the NCI-H1975 cells were stimulated with HGF. One day before the treatment, the medium used was changed from containing 10% FBS to containing no serum. Treatments were added at various concentrations (0.003-300 nM) in the presence of 80 ng/ml HGF and incubated for 3 days at 37° C.

[6] = test system: KP4 cells; assay: Cell proliferation, KP4 cells (WST-1); type: cell-based; conditions: KP4, 0.003-300 nM, 3 days
Description: KP4 (Riken RCB1005) is a pancreatic ductal cell carcinoma which has autocrine production of HGF. […] After 3 days, cells were analysed using cell proliferation reagent WST-1 (Roche) to determine the number of viable cells as described in the manufacturer's protocol. The stable tetrazolium salt WST-1 is cleaved to a soluble formazan by the glycolytic production of NAD(P)H in viable cells. The amount of formazan dye formed is quantitated at absorbances 450 nm and 630 nm.

[7] = target: T2, HGF (Homo sapiens, UniProt P14210); assay: Free HGF in culture media of U87MG cells (HGF Human ELISA Kit); type: cell-based; conditions: 30 nM, 4 days, compared to controls
T2 construct: examined in U87MG cells that secrete HGF; endogenous in cells; host or cells: U87MG
Description: It was hypothesised that internalisation of HGF by anti-EGFR/HGF mAb^2 leads to reduced level of HGF in the system. To test this hypothesis, the change in level of free HGF caused by incubation with anti-EGFR/HGF mAb^2 was examined in U87MG cells that secrete HGF. U87MG cultures were incubated with different treatments at 30 nM for 4 days at 37° C. […] On day 4, the media from each cell culture were collected for HGF level analysis. HGF concentration was measured using HGF Human ELISA Kit (ThermoFisher, KAC2211) following the manufacturer's protocol. Using monoclonal anti-HGF antibodies, the free HGF in media was detected (free HGF was defined as HGF in the media which was bound by detection antibodies).

T2 sequence (P14210 32-728): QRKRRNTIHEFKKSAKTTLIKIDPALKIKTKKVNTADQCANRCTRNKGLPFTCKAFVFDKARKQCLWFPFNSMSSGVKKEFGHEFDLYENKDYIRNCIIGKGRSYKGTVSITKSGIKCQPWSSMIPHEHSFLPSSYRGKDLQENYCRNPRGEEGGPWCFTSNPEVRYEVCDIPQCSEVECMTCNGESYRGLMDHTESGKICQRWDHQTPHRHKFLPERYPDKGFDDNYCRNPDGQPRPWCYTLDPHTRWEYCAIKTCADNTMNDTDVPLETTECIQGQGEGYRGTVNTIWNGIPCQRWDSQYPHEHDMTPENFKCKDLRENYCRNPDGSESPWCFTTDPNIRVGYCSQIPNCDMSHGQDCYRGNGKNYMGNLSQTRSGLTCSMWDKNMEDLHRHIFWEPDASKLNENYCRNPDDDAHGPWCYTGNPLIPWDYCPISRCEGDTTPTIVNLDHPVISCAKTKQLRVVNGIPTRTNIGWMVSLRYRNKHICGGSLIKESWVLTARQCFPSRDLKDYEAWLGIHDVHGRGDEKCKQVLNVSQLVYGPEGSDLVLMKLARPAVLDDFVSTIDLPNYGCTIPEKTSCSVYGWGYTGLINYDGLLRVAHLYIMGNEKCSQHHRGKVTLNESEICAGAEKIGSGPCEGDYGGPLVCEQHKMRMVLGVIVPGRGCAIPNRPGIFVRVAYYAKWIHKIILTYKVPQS

binding to HER3 [1]: bound to their corresponding antigens
B1: MM121: antibody MM121 (Merrimack), positive control for HER3 (antibody, chains of the INN, looked up)
heavy: EVQLLESGGGLVQPGGSLRLSCAASGFTFSHYVMAWVRQAPGKGLEWVSSISSSGGWTLYADSVKGRFTISRDNSKNTLYLQMNSLRAEDTAVYYCTRGLKMATIFDYWGQGTLVTVSSASTKGPSVFPLAPCSRSTSESTAALGCLVKDYFPEPVTVSWNSGALTSGVHTFPAVLQSSGLYSLSSVVTVPSSNFGTQTYTCNVDHKPSNTKVDKTVERKCCVECPPCPAPPVAGPSVFLFPPKPKDTLMISRTPEVTCVVVDVSHEDPEVQFNWYVDGVEVHNAKTKPREEQFNSTFRVVSVLTVVHQDWLNGKEYKCKVSNKGLPAPIEKTISKTKGQPREPQVYTLPPSREEMTKNQVSLTCLVKGFYPSDIAVEWESNGQPENNYKTTPPMLDSDGSFFLYSKLTVDKSRWQQGNVFSCSVMHEALHNHYTQKSLSLSPG
light: QSALTQPASVSGSPGQSITISCTGTSSDVGSYNVVSWYQQHPGKAPKLIIYEVSQRPSGVSNRFSGSKSGNTASLTISGLQTEDEADYYCCSYAGSSIFVIFGGGTKVTVLGQPKAAPSVTLFPPSSEELQANKATLVCLVSDFYPGAVTVAWKADGSPVKVGVETTKPSKQSNNKYAASSYLSLTPEQWKSHRSYSCRVTHEGSTVEKTVAPAECS

B2: ficlatuzumab (antibody, V domains shown)
VH: QVQLVQPGAEVKKPGTSVKLSCKASGYTFTTYWMHWVRQAPGQGLEWIGEINPTNGHTNYNQKFQGRATLTVDKSTSTAYMELSSLRSEDTAVYYCARNYVGSIFDYWGQGTLLTVSS
VL: DIVMTQSPDSLAMSLGERVTLNCKASENVVSYVSWYQQKPGQSPKLLIYGASNRESGVPDRFSGSGSATDFTLTISSVQAEDVADYHCGQSYNYPYTFGQGTKLEIKR
modifications: FI VH domain; FI VL domain
block of phosphorylation of c-Met by HGF [2]: able to block the phosphorylation of c-Met by HGF
block of phosphorylation of MAPK and Akt [3]: unable to block the phosphorylation of MAPK and Akt
inhibition of cell proliferation induced by HGF and EGF [4]: unable to block stimulation when both ligands were present
reduction of cell proliferation induced by HGF ([5]; NCI-H1975, 0.003-300 nM, 80 ng/ml HGF, 3 days): did not
reduction of cell proliferation induced by HGF ([5]; NCI-H1975, antibodies 300 nM with and without erlotinib (2 μM)): No effect
reduction in cell proliferation (WST-1) [6]: concentration-dependent reduction in cell proliferation; also recorded: inhibited cell proliferation, but to a lesser extent
concentration of free HGF in the media [7]: significant decrease in the concentration of free HGF in the media
